Measured values from the nanobody polyreactivity screen of Harvey et al. (2022).

Assay: yeast display, Sf9 membrane polyspecificity reagent, FACS + sequencing; frameworks hold sequencing errors
Outline: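 In a synthetic yeast display library (Saccharomyces cerevisiae BJ5465), nanobody expression was induced with galactose for 36–48 hours. FACS gates were set low and high (top ~1%) using anti-HA fluorescence for expression and streptavidin fluorescence for binding of the Sf9 membrane reagent. Each polyreactivity label is drawn from the gate of origin.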

Row | Sequence | polyreactivity (PSR sort gate)
1 | QVQLHESGGGLVQAGGSLRLSCAASGTISVTYNMGWYRQAPGKEREFVAGNSTGATTNYADSVKDRFTISRDNAKNTLYLQMNRLKPEDTAVYYCAAHIYRQDHFYYWGQGTQVTVSS | low polyreactivity
2 | QVQLVESGGGLVQAGGSLRLSCAASGFTFDGYAMGWYRQAPGKERELVAAISDSGDSTYYADSVKGRFTISRDNAKNTVYLQMNSLKPEDTAVYYCNADAYGTPEFTSYAVRYDYWGQGTQVTVSS | low polyreactivity
3 | QVQLVESGGGLVQAGGSLRLSCAASGGIFPVYAMGWSRQAPGKERELVATITSDGDTNYADSVKGRFTISRDNAKNTVYLQMNSLKPEDTAVYYCNKDLDYIIVQPHSPELEYWGQGTQVTVSS | low polyreactivity
4 | QVQLVESGGGLVQAGGSLRLSCDASGSIFIYYAMGWYRQAPGKERELVAAIDYSGDSTYYADSVKGRFTISRDNAKNTVYGQMNSLKPEDTAVYYCARRGFLVHWPRPSYDYWGQGTQVTVSS | low polyreactivity
5 | QVQLVESGGGLVQAGGSLRLSCAASGSTLTPNAMGWYRQAPGKERELVAAISRSGGSTYYADSVKGRFTISRDNAKNTVYLQRNSLKPEDTAVYYCRGYYIGIRAYGYWGQGTQVTVSS | high polyreactivity
6 | QVQLVESGGGLVQAGGSLRLSCAASGSTFDPYGMGWYRQAPGKERELVAAITSSGRTNYADSVKGRFTISRDNAKNTVYLQMKSLKPEDTAVYYCATRKERYFYRGYEYWGQGTQVTVSS | low polyreactivity
7 | QVQLVESGGGLVQAGGSLRLSCAASGRIFDLYTMGWYRQAPGKERELVAAIRWSDGSTYYADSVKGRFTISRDNAKNTVYLQMNSLKPEDTAVYYCNRDPPRVLWYYLLSDSKLDSWGQGTQVTVSS | low polyreactivity
8 | QVQLVESGGGLVQAGGSLRLSCAASGSIFFSYAMGWYRQAPGKERELVAGINWSGGSTYADSVKGRFTISRDNAKNTVYLQMNSLKPEDTAVYYCAAKYYSERSRYHYWGQGTQVTVSS | low polyreactivity
9 | QVQLVESGGGLVQAGGSNRLSCADSGLIFGFNTMGSYRQAPAKEREMVAVISSSGGSTYYADSVKARFTISRDNAKKTVYFQMNSLKPEDTAVYYSAARAYPVRYRRRDYWGQGTQVTVSS | high polyreactivity
10 | QFHLVESGGGIVQAGGSLRLSCAASGFTFAYYAMGRNRQAPGKERELVAAISSGGRTYYADSVKGRFTISRDNAQNTVYLQLNSLKPEDTAVYYCKTVPYYDALTYPFDSWGQGTQVTVSS | low polyreactivity
11 | QVQLVESGGGLVQAGGSLRLSCAASGSIFYDYAMGWYRQAPGKERELVAAINSGDSTYYADSVKGRFTISRDNAKNTVYLQMNSLKPEDTAVYYCAATYFSPYIEYDYWGQGTQVTVSS | low polyreactivity
12 | QVQLVESGGGLVQAGGSLRLSCPASGIIFHPYAMGWYRQAPGKERQLVAVITWPGDSTYYADSVKGRFTISRDNAKNTVYVQMNSLKPEDTAVYYCNVEAWGTSGELPYDYWGQGTQVTVSS | low polyreactivity
13 | QVQLVESGGGLVQAGGSLRLSSAASGNIMDVYAMGWYRQAPGKERELVAAISGTDGSTYYADSVKGRFTISRDNAKNTVYLQMNSLKPEDTAVYYCAAEYVYFWWGENYWGQGTQVTVSS | high polyreactivity
14 | QVQLVESGGGLVQAGGSLRLSCAASGSTFWYYAMGWFRQAPGKERELVAAITRGASTNYADSVKGRFTISRDNAKNTVYLQMNSLKPEDTAVYYCAAGPARWKGYYWGQGTQVTVSS | high polyreactivity
15 | QVQLVESGGGLVQAGGSLRLSSAASGSTFVVNAMGWYRQAPGKERELVAAITQSGGSTFYADSVKGRFTISRDNAKNTVYLQMNSLKPEDTAVYYWGQGTQLTVSS | low polyreactivity
16 | QVQLVESGGGLVQAGGSLRLSCAASGSTLYYYAMGWYRQAPGKERELVASITKSGASTYYADSVKGRFTISRDNAKNTVYLLMNSLKPEDTAVYYCAADVGAIYDNAENGYWGQGTQVTVSS | low polyreactivity
17 | QVQLVESGGGLVQAGGSLRLSCAASGFTFKRYAMGWYRQARGKERELVAAISWSGSSTYYADSVKGRFTISRDNAKNTVYLQMNSLKPEDTAVYYCAARSFRPAYDYWGQGTQVTVSS | high polyreactivity
18 | QVQLVESGGGLVKAGGSLRLSCAASGRTFLRNAMGWYRQAPGKERELVATITRGGSTYYADSVKGRFTISRDNAKNSVYLQMNSLKPEDTAVYYCAKDITGGFRRPDYGYWGQGTQVTVSS | low polyreactivity
19 | QVQLVESGGGLVQAGGSLRLSCAASGSIFQWNAMGWYRQAPGKERELVAAMSWSGTRTYYADSVKGRFTISRDNAKNTVYLQMNSLKPEDTAVYDCAFRGGKPTYRYDYWGQGTQVTVSS | high polyreactivity
20 | QVQLVESGGGLVQAGCSLRLSCAASGFTFYQNVMGWYRQAPGKERELVASINRRGGSTYYADSVKGRFTISRDNAMNTVYLQKNSLKPEDTAVYYCAARTYRFYTRQLDYWGQGTQVTVSS | high polyreactivity
21 | QVQLVESGGGLVQAGGSLRLSCAASGIIVPNAMGWYRQAPGKERELVAVITSGGSTYYADSVKGRFTISRDNAKNTVSLQMNSLKPEDTAVYYCNKDYAAIDRYDSWGQGTQVTVSS | low polyreactivity
22 | QVQLVESGGGLVQAGGSLRLSCAASGYIFRYYAMGWYRQAPGKERELVAAISRSGGNTYYADSVKGRFTISRDNAMITVYLQMNSLKPEDTAVYYCAVVLSTYSYADYDYWGQGTQVTVSS | high polyreactivity

Row | Sequence | polyreactivity (PSR sort gate)
23 | QVQLVESGGGLVQAGGSLRLSCAASGFTIGYKVMGWYRQAPGKERELVATISWNGARTYYADSVKGRFTISRDNAKNTVYLQMNSLKPEDTAVYYCAARRYYRGEYDYWGQGTQVTVSS | low polyreactivity
24 | QVQRVESGGGLVQAGGSLRLSCAASGKIFGQYAMGRYRQAPGKEREFVAAITWSGGSTYYADSVKGRFTISRDNAKNTVYLQMNSLKPEDTAVYYCAADYGKTHRYDYDYWGQGTQVTVSS | low polyreactivity
25 | QVQLVESGGGFVQAGGSHRLSCAASGRIFSCNAMGWYRQAPGKERELVAAITWRGTSTYYADSVKGRFTISRDNAKNTVYLQMNSLKPEDTAVYYWNGDYYYPADGRHYHYDYWGQGTQVTVSS | low polyreactivity
26 | QVQLVESGGGLVQAGGSLRLSCAASGSIFVQYDMGWYRQAPGKERELVAAITSGSSTNYADSVKGRFTISRDNAKNTVYLQMNSLKPEDTAVYYCAASTPYSYRYDYWGQGTQVTVSS | low polyreactivity
27 | QVQLVESGGGLVQAGGSLRLSCAASGLTFRLNAMGWYRQAPGKERELVAAITAIGDRTYYADSVKGRFTISRDNAKNTVYLQMKSLKQEDTAVYYCNVTPRRAQVRIGNYWGQGTQVTVSS | high polyreactivity
28 | QVQLVESGGGLVQAGGSLRLSCAASGRIFLGYAMGRYRQAPGKERELVAAITFSGGSTYYADSVKGRFTISRDNAKNTVYLQMNSLKPEDTAVYYCAAPRLRRTYPRNRYDYWGQGTQVTVSS | low polyreactivity
29 | QVQLVESGGGLVQAGGSLRLSCAASGFTVAIYAMGWYRHAPGKERELVAAINRCGGSTYYADSVKGRFTISRDNAKNSVYLQMNSLKTEDTAVYYCNKRYRVWFDYWGQGTQVTVSS | high polyreactivity
30 | QVQLVESGGVLVQAGGSLRLSCAASGRTFGGNVMAWYRQAPGKERELVAAISYSGGSTHYADSVKGRFTNSRDNAKNTVYLQMNSLKPEDTAVYYCAKDGEVTGDYWGLGTQVTVSS | low polyreactivity
31 | QVQLVESGGGLVQAGGSLRLSCAASGSTFDKNAMGWYRQAPGKERELVDAISIGVSTNYADSVKGRFTISRDNAKNTVYLQMNSLKPEDTAVYYCAADLFFGAETVYYDKFDYWGQGTQVTVSS | low polyreactivity
32 | QVQLQESGGGLVQAGGCLSCTASGTIFGQGDMGWYRQAPGKERELVATINDGASTYYADSVKGRFTISRDKAKNTVYLQKNSLKPDDTAVYYCAVFKDITTYFGYLGQGTQVTVSS | low polyreactivity
33 | QVQLVESGGGLVQAGGSLRLSCAASGSTFAKNAMGWYRQAPGKERELVAAISRGGNTYYADSVKGRFTISRDNAKNTVYLHMNSLKPEDTAVYYCAKLPYTRTYLGSLYDYWGQGTQVTVSS | high polyreactivity
34 | QVQHVESGGGLVQAGGSLRLSCAASGSTFFKYDMGWYRPAPGTERELVAVITWSGGTTFYADSVKGRFTISRDNANNTVYLQMNSLKPEDTAVSYCAADYYGYRYDYWGQGTQVTVSS | low polyreactivity
35 | QVQLVESGGGLVQAGGSLRLSCAASGITFPINAMGWSRQAPGKEREFVATISFSGASTYYADSVKGRFTISRDNAKNTVYLQMNSLKPEDTAVYYCAADLSLSTGGRAFPTYGYWGQGTQVTVSS | high polyreactivity
36 | QVQLVESGGGLVQAGGRLRLSCAASGYIFSRYAMGWYRQAPGKERELVAAISKSGSSTYYADSVKGRFTISRDNAKNTVYLQMNSLKPEDTAVYYCATSYSVGYDYWGQGTQVTVSS | high polyreactivity
37 | QVHLVEAGGGLVQAGGSLRLSCAASACTFWPYARGLSSQAPGQDTELVAAMTSSGSTNYADSVKGRFTITRDNAKNTDYLQMNSLKPEDTAVNYCAADHRPSRFQSSVHLYYYWGQGTQVTVSS | low polyreactivity
38 | QVQLVESGGGLVQAGGSLRLSCAASGITFVRYTMGWYRQAPGKEWELVATITLSGGRTYYADSVQGRFTISRDNAKNTVSLQMTSLKPEDTAVYYCAASSRSRWSGYRYDYWGQGTQVTVSS | high polyreactivity
39 | QVQLVESGGGLVQAGGSLRLSCAASGLTFYRYAMGWYRQAPWKERDFVAAINRNGGSTYYADSVKGRFTISRDNAKNTVYLEMNSLKPEDTAVYYCNARVSGTRSGRVLRDYWGQGTQVTVSS | high polyreactivity
40 | QVQLVDSVGGLVQAGGSLRLSCAASGFIFGRNSMGWYIQAPGKERELVAGISSRGGRTYYADSVKGRFTISRDNAKNTVYLQMNSLKPEDTAVYYCAAAGLTDYVRYDYWGQGTQVTVSS | high polyreactivity
41 | QVQLVESGGGLVQAGGSLRLSCAASGFIFDRYAMGWSRQAPGKERELVAAITGSGGSTYYADSVKGRFTISRDNAKNTVYFQMNSLKPEDTAVYYSAAESYDYFALFYVSIPYYYWGQGTQVTVSS | high polyreactivity
42 | QVQLVESGGGLVQAGGSLRLSCAASGSIFDVNAMGWYRQAPGKERELVAAISQRGTRTYYADSVKGRFTISRDNAKNTVYLQMNSLKAEDTAVYYCNRGGWRQYDSWGQGTQVTVSS | high polyreactivity
43 | QVQLVESGGGLVQAGGSLRLSCAASGSTFSVYAMGWYRQAPGKERELVATISWGGGITYYADSVKGRFTISRDNAKNTVYLQMNSLKPEDTAVYYCHSSKYGYWGQGTQVTVSS | high polyreactivity
